# Experimental data published in the nanobody polyreactivity screen of Harvey et al. (2022).
# Test: yeast display, Sf9 membrane polyspecificity reagent, FACS + sequencing; frameworks hold sequencing errors
# How it was run: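 A synthetic nanobody library was expressed on Saccharomyces cerevisiae BJ5465 by galactose induction for 36–48 hours. The library was stained for 1 hour at 4 °C with 10% biotinylated, detergent-solubilized Sf9 membrane reagent and enriched with streptavidin microbeads before FACS. Low and high (top ~1%) gates were set on anti-HA fluorescence for expression and streptavidin fluorescence for reagent binding, and each polyreactivity label reflects the gate of origin.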
row,Sequence,polyreactivity (PSR sort gate)
1,QVQLVESGGGLVQAGGSLRLSCAASGFTFGGNAMGWYRQAPGKEREFVAAITRSGGSTYYADSVKGRFTISRDNAKNTVYLQMNSLKPEDTAVYYCAARRSYPLGYDYWGQGTQVTVSS,high polyreactivity
2,QVQLVESGGGLVQAGGSLRLSCAASGFTFGGNVMGWYRQAPGTERELVAAITYSGGSTYYADSVKGRFTISRDNAKNTVYLQMNSLIPEDTAVYYCNADATDSYPEKDEHDSWGQGTQVNVSS,low polyreactivity
3,QVQLVESGGGLVQAGGSLRLSCAASGFTFGGYAMGWYRQAPGKERELVAAISRSGGSTSYADSVKGRFTISRDNAKNTVYLQMNSLKPEDTAVYYCAAKFFRNTYSYGMDYWGLGTQVTVSS,high polyreactivity
4,QVQLVESGGGLVQAGGSLRLSCAASGFTFGGYAMGWYRQAPGKERELVAAISSGGSTYYADSVKGRFTISRDNAKNTVYLQMNSLKPEDTAVYYCATDLRRYSYRGGHYYWGQGTQVTVSS,high polyreactivity
5,QVQLVESGGGLVQAGGSLRLSCAASGFTFGGYTMGWYRQAPGKERELVAAISRSGGSTYYADSVKGRFTISRDNAKNTVYLLMNSLKPEDTAVYYCAVTYSVRTYWYDYWGQGTQVTVSS,high polyreactivity
6,QVQLVESGGGLVQAGGSLRLSCAASGFTFGGYVMGWYRQAPGKERELVAAINQTGGSTYYADSVKGRFTISRDNAKNTVYLQMNSLKPEDTAVYYCAALGYHGYRNYDYWGQGTQVTVSS,low polyreactivity
7,QVQLVESGGGLVQAGGSLRLSCAASGFTFGINAKGWYRQAPGKERELVAALSWSGGSTYYADSVKGRFTISRDNAKNTVYLQMNSLKPEDTAVYYCAVVWFSLWYKGSTFNRYDYWGQGTQVTVSS,low polyreactivity
8,QVQLVESGGGLVQAGGSLRLSCAASGFTFGIYAMGRYRQAPGKERELVAAISRSGGSTYYADSVKGRFTISRDNAKNTVYLQMNSLKPEDTAVYYCNTRWGYARGGRYGYWGQGTQVTVSS,high polyreactivity
9,QVQLVESGGGLVQAGGSLRLSCAASGFTFGIYAMGWYRQAPGKERELVAAISRGGGSTYYADSVKGRFTISRDNAKNTVYLQMNSLKPEDTAVYYCAARYQSPYDYWGQGTQVTVSS,high polyreactivity
10,QVQLVESGGGLVQAGGSLRLSCAASGFTFGIYAMGWYRQAPGKERELVAAITKGGGSTYYADSVKGRFTISRDNAKNTVYLQMNSLKPEDTAVYYCAARRVSERRVGYWGQGTQVTVSS,high polyreactivity
11,QVQLVESGGGLVQAGGSLRLSCAASGFTFGKYAMGWYRPAPAKERELVAAISRSGGSTYYADSVKGRFTISRDIAKNTVYLQMNSLKPEDTAVYYCAAYHPIQEYDYWGQGTQVTVSS,high polyreactivity
12,QVQLVESGGGLVQAGGSLRLSCAASGFTFGKYARGWYRQAPGKERELVAAISRSGGSTYYADSVKGRFTISRDNAKNTVYLQMNSLKPEDTAVYYCAAYHPIQEYDYWGQGTQVTVSS,high polyreactivity
13,QVQLVESGGGLVQAGGSLRLSCAASGFTFGLYAMGWYRQAPGKERELVAAISWSGDNTYYADSVKGRFTISRDNAKNTVYLQMNSLKPEDTAVYYCAKVTKRNQGYYYWGQGTQVTVSS,high polyreactivity
14,QVQLVESGGGLVQAGGSLRLSCAASGFTFGNYAMGWYRQAPGKERELVAAITRGGSTYYADSVKGRFTISRDNAKNTVYLQMKSLKPEDTAVYYCAARYFFWFRPSEYYYWGQGTQVTVSS,high polyreactivity
15,QVQLVESGGGLVQAGGSLRLSCAASGFTFGPNAMGWYRQAPGKEREFVAAISWSGGSTYYADSVKGRFTISRDNAKNTVYLQMNSLKPEDTAVYYCAARYRYTRSGTMGYWGQGTQVTVSS,high polyreactivity
16,QVQLVESGGGLVQAGGSLRLSCAASGFTFGRNAMGWYRQAPGKERELVAAISRGGSTYYADSVKGRFTISRDNAKNTVYLQMISLKPEDTAVYYCAAETFLKPQYFKKFGYWGQGTQVTVSS,high polyreactivity
